Assays:
[1] = molecular target: Full-length Human OX40 (human) (UniProt P43489); test: flow cytometry (GUAVA Easycyte), antibody at 1:30 dilution, CHO clone OXF001a_9G10 expressing human OX40
[2] = molecular target: Full-length Cyno OX40 (cynomolgus monkey); test: flow cytometry (GUAVA Easycyte), antibody at 1:30 dilution, CHO clone OXF004a_11H7 expressing cynomolgus OX40
[3] = molecular target: Full-length Human OX40 (human) (UniProt P43489); test: flow cytometry (GUAVA Easycyte), antibody at 1:30 dilution, CHO clone OXF001a_6B1 expressing human OX40

Sequence of Full-length Human OX40 (human) (P43489 29-277): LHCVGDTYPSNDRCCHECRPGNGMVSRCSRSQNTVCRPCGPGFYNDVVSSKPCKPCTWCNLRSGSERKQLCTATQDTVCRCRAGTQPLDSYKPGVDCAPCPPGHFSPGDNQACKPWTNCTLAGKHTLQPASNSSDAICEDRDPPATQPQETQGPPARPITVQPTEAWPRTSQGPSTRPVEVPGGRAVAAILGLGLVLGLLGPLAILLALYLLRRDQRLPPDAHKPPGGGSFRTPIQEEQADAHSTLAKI
Sequence of Full-length Cyno OX40 (cynomolgus monkey) (P43489 other isoform, or with tags, fused parts or gaps): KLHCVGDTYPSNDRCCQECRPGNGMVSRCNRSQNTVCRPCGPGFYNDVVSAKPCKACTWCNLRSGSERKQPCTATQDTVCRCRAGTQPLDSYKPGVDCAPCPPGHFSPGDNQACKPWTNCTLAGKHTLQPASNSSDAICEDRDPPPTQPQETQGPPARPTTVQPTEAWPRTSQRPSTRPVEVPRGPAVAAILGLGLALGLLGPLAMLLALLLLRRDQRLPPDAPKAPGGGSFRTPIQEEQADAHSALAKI

MFI [1]: 230 | MFI [2]: 456 | MFI [3]: 211
Substance: antibody to human OX40 (clone L106, BD Biosciences)
